Test results published in patent publication US9228015B2, “Nogo receptor antagonists and methods of increasing neurite outgrowth” (Biogen Idec MA Inc., priority 2006, dated 2016).

Legend:
[1] = molecular target: T1, Nogo66 binding to sNogoR344-Fc (rat Nogo receptor-1 residues 26-344) (Rattus norvegicus, UniProt Q99M75, A303T/C287S/C43R/E284G/T53A); assay: SPA bead assay: 125I-Nogo66 binding to immobilized sNogoR344-Fc, inhibition by mAb; settings: 125I-Nogo66 binding to sNogoR344-Fc
T1 construct: amino acid residues 26-344 of rat Nogo receptor-1; made in house; CHO (DG44) is described only for sNogoR310-Fc
T1 sequence (Q99M75 26-344 C43R/T53A/E284G/C287S/A303T): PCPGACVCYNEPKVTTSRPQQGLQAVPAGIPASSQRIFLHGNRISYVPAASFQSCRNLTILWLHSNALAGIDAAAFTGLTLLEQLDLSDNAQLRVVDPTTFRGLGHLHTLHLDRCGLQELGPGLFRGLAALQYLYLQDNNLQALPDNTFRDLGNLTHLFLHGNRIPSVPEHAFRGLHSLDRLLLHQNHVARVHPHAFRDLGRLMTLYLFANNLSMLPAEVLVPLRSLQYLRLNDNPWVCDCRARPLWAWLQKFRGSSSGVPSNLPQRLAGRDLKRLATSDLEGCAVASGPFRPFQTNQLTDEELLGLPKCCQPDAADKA
Procedure: (§1) 0.5 μg of a soluble Nogo receptor-1 fusion protein comprising amino acid residues 26-344 of rat Nogo receptor-1 and the hinge and Fc region of the rat IgG1 molecule (sNogoR344-Fc) produced as described below was immobilized on […] of protein-A- or wheatgerm agglutinin-conjugated SPA beads (Amersham Pharmacia Biotech) for 2 hours at 25° C. SPA beads coupled with Fc-sNogoR-1, anti-Nogo receptor-1 mAb and 1 μl ^125I-Nogo66 (Amersham, 2000 Ci/mmol, 1 nM) in […] of the HEPES-buffered incubation medium (10 mM HEPES, pH 7.4, 0.1% bovine serum albumin, 0.1% ovalbumin, 2 mM MgCl2, 2 mM CaCl2 and protease inhibitors) was added to each sample well. After 16 hours, radioactivity was measured in quadruplicate samples using a TopCount® (Packard). IC50 values were calculated from a curve-fit analysis (FIG. 3) (PRISM, GraphPad Software, NJ). In some experiments, we also used AP-ligand conjugates (e.g. AP-Nogo66) and detected binding by monitoring alkaline phosphatase activity. We also assayed the ability of the mAbs to block binding of the ligands MAG-Fc and AP-OM-gp to Nogo receptor-1.

OM-gp + sNogoR344-Fc = molecular target: T2, OM-gp + sNogoR344-Fc (Rattus norvegicus, UniProt Q99M75, A303T/C287S/C43R/E284G/T53A); assay: ELISA: inhibition of OM-gp binding to sNogoR344-Fc
T2 construct: amino acid residues 26-344 of rat Nogo receptor-1; made in house; CHO (DG44) is described only for sNogoR310-Fc
T2 sequence (Q99M75 26-344 C43R/T53A/E284G/C287S/A303T): T1 sequence (Q99M75 26-344 C43R/T53A/E284G/C287S/A303T)
Procedure: as §1
Monoclonal antibodies 7E11, 5B10, 1H2, 3G5 and 2F7 all inhibited binding of Nogo66, MAG and OM-gp to sNogoR344-Fc. The calculated IC50 for Nogo66 for 7E11 and 1H2 were 400 nM and 60 nM, respectively. The data from ELISAs monitoring mAb-mediated inhibition of binding of the three ligands to Nogo receptor-1 are summarized in Table 6.
The percent displacement is shown at 30 nM antibody and the EC50 for certain mAbs determined from curve-fit analysis as described. “-” indicates no detectable activity and “ND” indicates not determined.
We also performed ELISA binding assays using the Fab-phage 141)5.

mouse NgR3 = molecular target: T3, mouse NgR3 (Mus musculus, UniProt Q8K0S5); assay: Antibody binding specificity: mouse Nogo receptor-3
T3 sequence (Q8K0S5 25-424): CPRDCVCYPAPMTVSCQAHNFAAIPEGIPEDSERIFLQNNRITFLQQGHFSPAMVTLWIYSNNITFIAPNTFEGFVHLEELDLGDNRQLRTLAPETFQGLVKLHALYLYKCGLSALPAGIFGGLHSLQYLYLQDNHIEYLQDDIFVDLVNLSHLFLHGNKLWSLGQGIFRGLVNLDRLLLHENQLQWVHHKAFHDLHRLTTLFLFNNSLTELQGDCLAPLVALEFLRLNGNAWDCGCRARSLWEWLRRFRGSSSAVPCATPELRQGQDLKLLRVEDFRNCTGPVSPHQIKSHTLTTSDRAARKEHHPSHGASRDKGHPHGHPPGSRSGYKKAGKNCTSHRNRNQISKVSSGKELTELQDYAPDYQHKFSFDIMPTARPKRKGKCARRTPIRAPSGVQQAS

NgR3 = molecular target: T4, NgR3 (Homo sapiens, UniProt Q86UN2); assay: Antibody binding specificity: NgR3
T4 sequence (Q86UN2 with tags, fused parts or gaps V54E/V59I/G67T/L68F/P71Q/Y90F/H92A/S94N/V144I/P190Q/T192I/R221H/S234T/E239D/G245V/P256A/Q271R/V283A/S284T/G286E/H289Q/A298V/A308V/T321S/S331P/P332S/P335A/T336S/S338D/P345H/R346P/H349S/INS350SGYK/P352A/N358S/P359H/A368V/G369S/A370S/Q373E/A374L/P375T/P378Q): T3 sequence (Q8K0S5 25-424)

[2] = test system: DRG neurons, myelin-mediated inhibition of neurite outgrowth; assay: Neurite outgrowth assay, P3-4 rat DRG neurons on CNS myelin (Example 5); assay type: cell-based; settings: mAb added after plating
Procedure: To test the ability of the monoclonal and Fab-phage antibodies produced above to lessen the inhibitory effect of CNS myelin on neurons, Lab-Tek® culture slides (4 wells) were coated with 0.1 mg/ml poly-D-lysine (Sigma®). CNS myelin or PBS was spotted as 3 μl drops. Fluorescent microspheres (Polysciences) were added to the myelin/PBS to allow later identification of the drops (Grandpre et al., Nature 403:439-444 (2000)). Lab-Tek® slides were then rinsed and coated with 10 μg/ml laminin (Gibco™). Dorsal root ganglions (DRG's) from P3-4 Sprague Dawley rat pups were dissociated with 1 mg/ml collagenase type 1 (Worthington), triturated with fire-polished Pasteur pipettes pre-plated to enrich in neuronal cells and finally plated at 23,000 cells/well on the pre-coated Lab-Tek® culture slides. The culture medium was F12 containing 5% heat inactivated donor horse serum, 5% heat inactivated fetal bovine serum and 50 ng/ml mNGF and incubated at 37° C. and 5% CO2 for 6 hours. Fifteen […] of mAb 7E11 was added immediately after plating.
Slides were fixed for 20 minutes with 4% paraformaldehyde containing 20% sucrose and stained for the neuronal marker anti beta-III-tubulin (Covance TUJ1) diluted 1:500. […] 5× digital images were acquired with OpenLab™ software and analysed by using the MetaMorph® software for quantification of neurite outgrowth.

B1: 7E11: murine monoclonal anti-Nogo receptor-1 antibody, immunogen rat Nogo receptor-1 residues 110-125, IgG1 kappa, ATCC PTA-4587 (antibody, V domains shown)
VH: VQLQESGAELVMPGASVKMSCKASGYTFTDYWMHWVKQRPGQGLEWIGAIDPSDSYSSYNQNFKGKATLTVDGSSSTAYMQLSSLTSEDSAVYYCARRITEAGAWFAYWGQGTTVT
VL: MKLPVRLLVLMFWIPASSSDVVMTQTPLSLPVSLGDQASISCRSSQSLVHSNGNTYLHWYLQKPGQSPKLLIYKVSNRFSGVPDRFSGSGSGTDFTLKISRVDAEDLGVYFCSQSTHVPFTFGGGTKLEIKRADAAPTVSISHH
modifications: 7E11 heavy chain; 7E11 light chain
notes: murine monoclonal anti-Nogo receptor-1 antibody, immunogen rat Nogo receptor-1 residues 110-125, IgG1 kappa, ATCC PTA-4587
With B1 the IC50 [1] was 400 nM, the “inhibition of binding of OM-gp to sNogoR344-Fc” value (OM-gp + sNogoR344-Fc) was “inhibited” and the EC50 (OM-gp + sNogoR344-Fc; curve-fit analysis) was 150 nM. The “binding to mouse Nogo receptor-3” value (mouse NgR3) was “not”, the “binding to NgR3” value (NgR3) was “does not bind well” and the “protection of DRG neurons from myelin-mediated inhibition of neurite outgrowth” value [2] was “protected”.
